Common to all, as to settings: both partners purified
Assay [1] addresses T1, biotinylated rHev b 8 (Hevea brasiliensis, biotin (1:5 profilin:biotin ratio; sites not stated)).
T1 construct: profilin Hev b 8, Hevea brasiliensis, named 'rHev b 8' in the BLI methods; The BLI methods say only 'Profilin rHev b 8'; also called biotinylated profilin; biotinylated allergen; source: E. coli Rosetta (DE3), purified (HisTrap), then biotinylated at a 1:5 profilin:biotin ratio and dialyzed
T1 chain: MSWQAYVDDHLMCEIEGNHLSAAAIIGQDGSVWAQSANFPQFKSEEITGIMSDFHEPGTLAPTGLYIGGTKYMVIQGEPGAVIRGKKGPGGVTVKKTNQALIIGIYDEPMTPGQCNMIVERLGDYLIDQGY
Put plainly: BLI; biotinylated rHev b 8 (125 nM) on streptavidin biosensors; Fab/IgE 2F5 at 62.5-2000 nM; 25 °C; PBS pH 7.4, 0.05% Tween 20, 1 M NaCl; 1:1 global fit considering nonspecific binding (Association-Dissociation model, GraphPad Prism 8). In general terms: In BLI a coated tip is dipped into the sample, and binding shifts an interference pattern.

Assay [2] has as its target T1, biotinylated rHev b 8. Put plainly: BLI; same BLI data (biotinylated rHev b 8 on streptavidin, 25 °C, PBS pH 7.4, 0.05% Tween 20, 1 M NaCl); kon from the association step and koff from the dissociation step fitted separately in Prism 8, KD = koff/kon.
The target of assay [3] is T2, DDDK-rHev b 8 (rHev b 8 with the last four residues of the enterokinase cleavage site at the N-terminus) (Hevea brasiliensis).
T2 construct: last four residues of the enterokinase cleavage site left at the N-terminus (D-3, D-2, D-1, K-0); D-2 makes a hydrogen bond with Y49 of the Fab light chain; profilin Hev b 8, Hevea brasiliensis, from M1; The whole construct was expected at 18,283 Da but measured 14,625 Da (14,629 Da in another paragraph): only DDDK is left of the N-terminal extension; also called DDDK-Hev b 8; rHev b 8 whole …
T2 chain: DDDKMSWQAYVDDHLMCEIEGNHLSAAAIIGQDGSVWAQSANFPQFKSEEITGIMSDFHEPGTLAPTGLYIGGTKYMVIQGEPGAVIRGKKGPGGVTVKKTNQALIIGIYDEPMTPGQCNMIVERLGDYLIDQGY
Put plainly: MALDI-TOF mass spectrometry; sinapinic acid matrix; samples of Fab/IgE 2F5 and of its complex with rHev b 8 (whole construct); the peaks of the complex and of the dimeric Fab were not calibrated.

Assay [4] addresses T3, recombinant maize profilin (rZea m 12) (Zea mays).
T3 construct: profilin Zea m 12, maize; has D14, G98, V118, E128; The mutagenesis primers encode KKT(N)MSL and YLI(D)QGF around positions 98 and 128
T3 chain: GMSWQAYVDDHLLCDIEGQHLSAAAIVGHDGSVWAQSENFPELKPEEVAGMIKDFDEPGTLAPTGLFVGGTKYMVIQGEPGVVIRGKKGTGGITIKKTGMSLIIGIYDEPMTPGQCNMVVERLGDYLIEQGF
Put plainly: ELISA; plates coated with 100 μL of 0.7 μM profilin in PBS pH 7.4, blocked with 1% BSA; IgE 2F5 in PBS, 1 h 37 °C; detected with HRP anti-mouse IgE Fcε, ABTS, 405 nm; n = 4. In general terms: In an ELISA, binding on a coated surface is turned into a signal by an enzyme label.

For assay [5], the target named is T2, DDDK-rHev b 8 (rHev b 8 with the last …). Described as above.

This is an account of results in PMC9334453, “A native IgE in complex with profilin provides insights into allergen recognition and cross-reactivity” (Communications Biology, 2022).

B1: Fab/IgE 2F5 (papain Fab fragment of the murine IgE 2F5) (Fab, V domains shown)
VH: EVQLVESGGGLVQPKGSLKLSCAASGFTFNTYAMNWVRQAPGKGLEWVARIRTKTNNYVTYYADSVKDRFTISRDDSQSMLYLQMNNLKTEDTAMYYCVRHVGDYWGQGTSVTVSS
VL: DIQMTQSPASLSASVGETVTITCRASGNIHNYLAWFQQKQGKSPQLLVYNAKTLADGVPSRFSGSGSGTQYSLKINSLQPEDFGSYYCQHFWSTPYTFGGGTKLEIK
notes: VH and Cε1; papain cleavage site said to be R209/P210 between Cε1 and Cε2; light chain of IgE 2F5; also called the Fab; source: papain digest of IgE 2F5 (36 h, 37 °C), purified (Superdex 75 SEC, Mono Q)
As usually defined, the Kd is the concentration at which binding is half-saturated. Take B1: the Kd in assay [1] came to 370 ± 6.8 nM; in assay [2] it was 369 ± 3.8 nM. In assay [3], the binding result was “binds”.

B2: murine monoclonal IgE antibody 2F5 (anti-profilin Hev b 8) (antibody, V domains shown)
VH: B1 VH
VL: B1 VL
notes: rest of the murine IgE (epsilon) heavy chain constant region after the papain site R209/P210 (Cε2 onward); as the light chain of m2; Native, non-recombinant IgE with naturally paired chains; also called IgE 2F5; mAb 2F5; copies: 2 + 2
As for B2, the figures for the binding result in assay [4] and in assay [5] were “no binding” and “binds”, respectively.
